# Laboratory results: IntAct's records for PubMed 19703395
# B1: Transposon Tn7 transposition protein TnsE (Escherichia coli), P05845 (parent)
# chain: MVRLATFNDNVQVVHIGHLFRNSGHKEWRIFVWFNPMQERKWTRFTHLPLLSRAKVVNSTTKQINKADRVIEFEASDLQRAKIIDFPNLSSFASVRNKDGAQSSFIYEAETPYSKTRYHIPQLELARSLFLINSYFCRSCLSSTALQQEFDVQYEVERDHLEIRILPSSSFPKGALEQSAVVQLLVWLFSDQDVMDSYESIFRHYQQNREIKNGVESWCFSFDPPPMQGWKLHVKGRSSNEDKDYLVEEIVGLEINAMLPSTTAISHASFQEKEAGDGSTQHIAVSTESVVDDEHLQLDDEETANIDTDTRVIEAEPTWISFSRPSRIEKSRRARKSSQTILEKEEATTSENSNLVSTDEPHLGGVLAAADVGGKQDATNYNSIFANRFAAFDELLSILKTKFACRVLFEETLVLPKVGRSRLHLCKDGSPRVIKAVGVQRNGSEFVLLEVDASDGVKMLSTKVLSGVDSETWRNDFEKIRRGVVKSSLNWPNSLFDQLYGQDGHRGVNHPKGLGELQVSREDMEGWAERVVREQFTH
# Variants of: B1
# Details: with dpo3b_ecoli dnaN
row,Variant,effect of a mutation on the interaction
1,MVRLATFNDNVQVVHIGHLFRNSGHKEWRIFVWFNPMQERKWTRFTHLPLLSRAKVVNSTTKQINKADRVIEFEASDLQRAKIIDFPNLSSFASVRNKDGAQSSFIYEAETPYSKTRYHIPALELARSLFLINSYFCRSCLSSTALQQEFDVQYEVERDHLEIRILPSSSFPKGALEQSAVVQLLVWLFSDQDVMDSYESIFRHYQQNREIKNGVESWCFSFDPPPMQGWKLHVKGRSSNEDKDYLVEEIVGLEINAMLPSTTAISHASFQEKEAGDGSTQHIAVSTESVVDDEHLQLDDEETANIDTDTRVIEAEPTWISFSRPSRIEKSRRARKSSQTILEKEEATTSENSNLVSTDEPHLGGVLAAADVGGKQDATNYNSIFANRFAAFDELLSILKTKFACRVLFEETLVLPKVGRSRLHLCKDGSPRVIKAVGVQRNGSEFVLLEVDASDGVKMLSTKVLSGVDSETWRNDFEKIRRGVVKSSLNWPNSLFDQLYGQDGHRGVNHPKGLGELQVSREDMEGWAERVVREQFTH [Q122A],decreasing interaction
2,MVRLATFNDNVQVVHIGHLFRNSGHKEWRIFVWFNPMQERKWTRFTHLPLLSRAKVVNSTTKQINKADRVIEFEASDLQRAKIIDFPNLSSFASVRNKDGAQSSFIYEAETPYSKTRYHIPQLELARSAFLINSYFCRSCLSSTALQQEFDVQYEVERDHLEIRILPSSSFPKGALEQSAVVQLLVWLFSDQDVMDSYESIFRHYQQNREIKNGVESWCFSFDPPPMQGWKLHVKGRSSNEDKDYLVEEIVGLEINAMLPSTTAISHASFQEKEAGDGSTQHIAVSTESVVDDEHLQLDDEETANIDTDTRVIEAEPTWISFSRPSRIEKSRRARKSSQTILEKEEATTSENSNLVSTDEPHLGGVLAAADVGGKQDATNYNSIFANRFAAFDELLSILKTKFACRVLFEETLVLPKVGRSRLHLCKDGSPRVIKAVGVQRNGSEFVLLEVDASDGVKMLSTKVLSGVDSETWRNDFEKIRRGVVKSSLNWPNSLFDQLYGQDGHRGVNHPKGLGELQVSREDMEGWAERVVREQFTH [L129A],decreasing interaction
3,MVRLATFNDNVQVVHIGHLFRNSGHKEWRIFVWFNPMQERKWTRFTHLPLLSRAKVVNSTTKQINKADRVIEFEASDLQRAKIIDFPNLSSFASVRNKDGAQSSFIYEAETPYSKTRYHIPQAELARSLFLINSYFCRSCLSSTALQQEFDVQYEVERDHLEIRILPSSSFPKGALEQSAVVQLLVWLFSDQDVMDSYESIFRHYQQNREIKNGVESWCFSFDPPPMQGWKLHVKGRSSNEDKDYLVEEIVGLEINAMLPSTTAISHASFQEKEAGDGSTQHIAVSTESVVDDEHLQLDDEETANIDTDTRVIEAEPTWISFSRPSRIEKSRRARKSSQTILEKEEATTSENSNLVSTDEPHLGGVLAAADVGGKQDATNYNSIFANRFAAFDELLSILKTKFACRVLFEETLVLPKVGRSRLHLCKDGSPRVIKAVGVQRNGSEFVLLEVDASDGVKMLSTKVLSGVDSETWRNDFEKIRRGVVKSSLNWPNSLFDQLYGQDGHRGVNHPKGLGELQVSREDMEGWAERVVREQFTH [L123A],decreasing interaction
4,MVRLATFNDNVQVVHIGHLFRNSGHKEWRIFVWFNPMQERKWTRFTHLPLLSRAKVVNSTTKQINKADRVIEFEASDLQRAKIIDFPNLSSFASVRNKDGAQSSFIYEAETPYSKTRYHIPQLEAARSLFLINSYFCRSCLSSTALQQEFDVQYEVERDHLEIRILPSSSFPKGALEQSAVVQLLVWLFSDQDVMDSYESIFRHYQQNREIKNGVESWCFSFDPPPMQGWKLHVKGRSSNEDKDYLVEEIVGLEINAMLPSTTAISHASFQEKEAGDGSTQHIAVSTESVVDDEHLQLDDEETANIDTDTRVIEAEPTWISFSRPSRIEKSRRARKSSQTILEKEEATTSENSNLVSTDEPHLGGVLAAADVGGKQDATNYNSIFANRFAAFDELLSILKTKFACRVLFEETLVLPKVGRSRLHLCKDGSPRVIKAVGVQRNGSEFVLLEVDASDGVKMLSTKVLSGVDSETWRNDFEKIRRGVVKSSLNWPNSLFDQLYGQDGHRGVNHPKGLGELQVSREDMEGWAERVVREQFTH [L125A],decreasing interaction
5,MVRLATFNDNVQVVHIGHLFRNSGHKEWRIFVWFNPMQERKWTRFTHLPLLSRAKVVNSTTKQINKADRVIEFEASDLQRAKIIDFPNLSSFASVRNKDGAQSSFIYEAETPYSKTRYHIPQLELARSLALINSYFCRSCLSSTALQQEFDVQYEVERDHLEIRILPSSSFPKGALEQSAVVQLLVWLFSDQDVMDSYESIFRHYQQNREIKNGVESWCFSFDPPPMQGWKLHVKGRSSNEDKDYLVEEIVGLEINAMLPSTTAISHASFQEKEAGDGSTQHIAVSTESVVDDEHLQLDDEETANIDTDTRVIEAEPTWISFSRPSRIEKSRRARKSSQTILEKEEATTSENSNLVSTDEPHLGGVLAAADVGGKQDATNYNSIFANRFAAFDELLSILKTKFACRVLFEETLVLPKVGRSRLHLCKDGSPRVIKAVGVQRNGSEFVLLEVDASDGVKMLSTKVLSGVDSETWRNDFEKIRRGVVKSSLNWPNSLFDQLYGQDGHRGVNHPKGLGELQVSREDMEGWAERVVREQFTH [F130A],decreasing interaction
6,MVRLATFNDNVQVVHIGHLFRNSGHKEWRIFVWFNPMQERKWTRFTHLPLLSRAKVVNSTTKQINKADRVIEFEASDLQRAKIIDFPNLSSFASVRNKDGAQSSFIYEAETPYSKTRYHIPQLELARSLFAINSYFCRSCLSSTALQQEFDVQYEVERDHLEIRILPSSSFPKGALEQSAVVQLLVWLFSDQDVMDSYESIFRHYQQNREIKNGVESWCFSFDPPPMQGWKLHVKGRSSNEDKDYLVEEIVGLEINAMLPSTTAISHASFQEKEAGDGSTQHIAVSTESVVDDEHLQLDDEETANIDTDTRVIEAEPTWISFSRPSRIEKSRRARKSSQTILEKEEATTSENSNLVSTDEPHLGGVLAAADVGGKQDATNYNSIFANRFAAFDELLSILKTKFACRVLFEETLVLPKVGRSRLHLCKDGSPRVIKAVGVQRNGSEFVLLEVDASDGVKMLSTKVLSGVDSETWRNDFEKIRRGVVKSSLNWPNSLFDQLYGQDGHRGVNHPKGLGELQVSREDMEGWAERVVREQFTH [L131A],decreasing interaction
